Experiment: yeast display, Sf9 membrane polyspecificity reagent, FACS + sequencing; frameworks hold sequencing errors
Procedure, shortened: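 A nanobody's polyreactivity label depends on the gate it was sorted from. Yeast display cells were stained with 10% biotinylated, detergent-solubilized Sf9 membrane reagent for 1 hour at 4 °C, enriched on streptavidin microbeads and sorted by FACS. The low and high (top ~1%) gates were set on anti-HA fluorescence for expression and streptavidin fluorescence for reagent binding.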

| Sequence | polyreactivity (PSR sort gate) |
| --- | --- |
| QVQLVESGGGLVQAGGSLRLSCAASGRIFIYNVMGWYRQAPGKERELVATISTGGTTNYADSVKGRFTISRDNAKNTVYLQMNSLKPEDTAVYYCNRGSGYWYLPAVKYDHWGQGTQVTVSS | low polyreactivity |
| QVQLVESGGGLVQAGGSLRLSCAASGSILYRYTMGWDRQAPGKERELVAAISFSGGRTYYADSVKGRFTISRDNAKNTVYLQMNSLKPEDTAVYYCNAGTSGKYGYWGQGTQVTVSS | high polyreactivity |
| QVQLVGSGGGLVQAGGSLRLSCAASGRIFDKNAMGWYRQAPGKERELVAAISGGGRTYYADSVKGRFTISRDNAKNTVYLQMNSLKQEDTAVYYCNVPYYYTGGSYGYWGQGTQVTVSS | low polyreactivity |
| QVQLVESGGGLVQAGGSLRLSCAASGITFWYYAMGWYRQAPGKERELVAVISRGGSTYYADSVKGRFTISRDNAKNTVYLQMNSLKPEDTAVYYCAARQRWYTYTRQEYDYWGQGTQVTVSS | high polyreactivity |
| QVQLVESGGGLVQAGGSLRLSCAASGRIFSQYAMGWYRQAPGKERELVAAISYDDGITYYADSVKGRFTISRDNAKNTVYLQMNSLKPEDTAVYYCNADGSRRYNYWGQGTQVTVSS | low polyreactivity |
| QVQLVESGGGLVQAGGSLRLSCAASGGILSDYAMGWYRQAPGKERELVAAITISGGRTNYADSVKGRFTFSRDNAKNTVYLQMNSLTPEDTAVYYCYKLPWEYDYWGQGTQVTVSS | low polyreactivity |
| QVQLVESGGGLVQAGGSLRLSCAASGRTFHVYAMGWYRPAPGKERELVATITDGSTNYADSVKGRFTISRDNAKNTVYLQMNSLKPEDSAVYYCATVRAWIPSGDYEYWGQGTQVTVSS | low polyreactivity |
| QVQLVESGGGLVQAGGSLRLSCAASGRIFTGYAMGWYRQAPGKERELVATIRSRGGGTYYADSVKGRFTISRDNAKNTVYLQMNSLKPEDTAVYYCAADDYYYYFGTRYGYWRQGTQVTVSS | low polyreactivity |
| QVQLVESVGGLVQAGGSLRLSCAASGFIILINVMGWYRKAPGKERELVAVITGGGTTNYADSVKGRFTISRDNAKNTVYLQMNSLKPEDTAVYYCAVDAGAGDNDYWGQGTQVTVSS | low polyreactivity |
| RVQLVESGGGLVQAGGSLRLSCAASGRTFVNYAMGWYRQAPGKEREFVAAITNGGRTNYADSVKGRFTISRDNAKNTVYLQMNSLQPEETEVYYCAARYRFGGIRRYNYWGQGTQVTVSS | high polyreactivity |
| QVQLVESGGGLVQAGGSLRLSCAASGFIFGINAMGWYRQAPGKERELVAAISKRTGSTYYADSVKGRFTISRDTAKNTVYLQMNSLKPEDTAVYYCNVVRYNGLDKYDYWGQGTQVTVSS | high polyreactivity |
| QVQLVESGGGLVQAGGSLRLSCAASGFTFWRNAMGLYRQAPGKERELDAAISWRGGSTYYADCVKGRFTISRDNAKNTVYFQMNSLKPEDTAVYYCNVVYFRYYSGEFDYWGQGTQVTVSS | high polyreactivity |
| QVQLVESGGGLVQAGGSLRLSCAASGLTFDGNTMGWYRQAPGKERELVAAISFDGGNTYADSVKGRFRISRDNAKNTVYLQMNSLKPEDTAVYYCNASYEYNAGRVETEYDYWGQGTQVTVSS | low polyreactivity |
| QVQLVESGGGLVQAGGSLRLSCAASGSIFAANAMGWYRQAPGKERELVAAISWSGGSTYADSVKGRFTISRDNAKNTVYLQMNSLKPEDTAVYYCNAYVYVGTGRGYDTLDYWGQGTQVTVSS | low polyreactivity |
| QFQLVESGGGLVQAGGSLRLSCAASGRTFGSNVRGWYRQAPGKERELVAAISVSGGSTYYADSVKGRFTISRDNAKNTVYLQMNSLKPDDTAVYYCAADYPTLGYTQNDYWGQGTQVTVSS | low polyreactivity |
| QVQLVESGGGLVQAGGSLSLTCAASGIIFSYNAMGWYRQATGKERELVAAISWSGGSTYYADSVKGRFTISRDNAKNTVYLQMNSLKPEDTAVYYCNAPYLIRFKRLGDNWGQGTQVTVSS | high polyreactivity |

| Sequence | polyreactivity (PSR sort gate) |
| --- | --- |
| QVQLVESGGGLVQAGGSLRLSCAASGFTFIYNAMGWYRQAPGKERELVAAITGGGGSTYYADSVKGRFTISRDNAKYTVYLQMNSLKPEDTAVYYCNVYYPQSGVTYDYWGQGTLVTVSS | low polyreactivity |
| QVQLVESGGGLVQAGGSLRLSCAASGRTFGYYAMGWYRQAPGKERELVATITWSGGSTYYADSVKGRFTISRDNAKNTVYLQMNSLKPEDTAVYYCATDALYTYGYDYWGQGTQVTVSS | low polyreactivity |
| QVQLVESGGGLVQAGGSLRLSCAASGLIFYDNMGWYRQAPGKERELVAAISSSGGSTSYADSVKGRFTISRDNAKNTVYLQMNSLKPEDTAVYYCAAQYPAYYTNSYWGQGTQVTVSS | low polyreactivity |
| QVQLVDSGGGLVQAGGSLRLSCAASGFTFFRYAMGWYRQAPGKERELVAAITSGGGRTYYADSVKGRFTISRDNAKNTVYLQMNSLNPEDTAVYYCAARVYFSFITPIKYNYWGQGTQVTVSS | high polyreactivity |
| QVQLVESGGGLVQAGGSLRISCAASGSIFDYYAMGWYIQAPGKERELVAAISWSGGSTYYADSVKGRFTISRDNAKNTVYLQMNSLKPVDTAVYYCAAEYYGGEFDYWGQGTQVTVSS | low polyreactivity |
| QVQLVESGGGLVQAGGSLRLSCAASGRIFSRYAMGWYRQAPGKERELVAAITGRGGSTYYADSVKGRFTISRDNAKNTVYLQMNSLKPVDTAVYYCAVANRVTPLFLRYDYWGQGTQVTVSS | high polyreactivity |
| QVQLEDSGGGLVQAGGSLRLSSPASGRIFGWYAMGWYRQAPGKERELVATISYSGASTYYADSVKGRFTISRDNAKNTVYLQMNSLKPEDTAVYYCAAVYHKNGCGDYSWGQGTQVTVSS | high polyreactivity |
| QVQLVESGGGLVQAGGSLRLSCAASGRTFGRNAMGWYRQAPGERELVAVISRGGSTYYADSVKGRFTISRDNAKNTVYLQMNSLKPEDTAVYYCNADTVYTRTAPYDYWGQGTQVTVSS | low polyreactivity |
| QVQLVESGGGLVQAGGSLRLSCAASGIISIFNVMGWYRQAPGKEMEWVASITGRGGSTFYADSVKGRFTISRDNAKNTVDLLMNSMKPEATAVYFCATDNGYTYPVTGLYDYWGQGTQVTVSS | low polyreactivity |
| QVQLVESGGGLVQAGGSLRLSCAASGIIFGDNAMGWYRQAPGKERELVAAISSSGTSTNYADSVKGRFTISRDNAKNTVYLQMNSLKPEDSAVYYCAKDVLPPYPQSPSGGDYWGQGTQVTVSS | low polyreactivity |
| QVQLVESGGGLVQAGGSLRLSCAASGSIFPYYTMGWYRQAPGKERELVAAINYSGASTYYADSVKGRFTISRDNAKNTVYLQMNSLKPEDTAVYYCAADYPPLYRKYVYWGQGTQVTVSS | low polyreactivity |
| QVQLVETGGGLVLAGGSLRLSCAASGSTFRLYAMGWYRQAPGTARELVAAITSGGSTYYADAVKGRFTISRDNAKNTVYLQMNSLKPEDTAVYYCARLAGDSTYWWWLYLITQRDDYWGQGTQVTVSS | low polyreactivity |
| QVQLVESGGGLVQAGGSLRLSCAASGSTFYVNAMGSYRKAPGKEMEFVAAITWNSGSTYYADSVKGRFTISRDNANYTVYLQMNSLKPEDTAVYYCAAVLSVRDYGYDYWGQGTQVTVSS | low polyreactivity |
| QVQLVESGGGLVQAGGSLRLSCAASGSTFRRNAMGWYRQSPGKERELVAAISWRGGSTYYADSVKGRFTISRDYAKNTVYLQMNSLKPEDTAVYYCNTYHPYWGSGFDYWGQGTQVTVSS | low polyreactivity |
| QVQLVESAGGLVQAGGSLRLSCAASGSTLYGYVMGWYRQAPGKERELVAAITWSSGYTYYADSVKGRFTISRDNAKITVYLQMNILKPVDTAVYYCAVRDRSPYGYYYWGQGTQVTVSS | low polyreactivity |
| QVQLVESGGGLVQAGGSLRLSCAASGSISYFYAMGWYRQAPGKERELVADINSGDDTYADSVKGRFTISRDNAKNTVYLQMNSLKPEDTAVYYCSVKYGGYESHYYRRPHYDYWGQGTQVTVSS | low polyreactivity |

Reference: the nanobody polyreactivity screen of Harvey et al. (2022)
